Experimental data from the supplement of paper PMC10567573.

B1: PLK2 (parent)
chain: YAELGQCSVFPATDAPEQFISQVT
B2: ELF3 (parent)
chain: LSKEYWDCLEGKKSKHAPRGTHLW

Variants of: B1
Assay: protein stability index of a GFP-peptide fusion (GPS, HEK-293T) (PSI 1-6); higher = more stable
Settings: c terminus: a fixed tail appended
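Further: lentivirally expressed fusions sorted by FACS into six bins by GFP to DsRed ratio, PSI derived from sequencing read proportions per bin multiplied by bin number.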

Row | Variant | protein stability index
1 | E3C | 2.21
2 | E3S | 1.82
3 | E3H | 1.93
4 | E3Y | 1.85
5 | E3K | 2.17
6 | E3F | 1.94
7 | E3Q | 2.02
8 | E3V | 2.31
9 | E3T | 1.98
10 | E3G | 1.85
11 | E3D | 2.19
12 | E3M | 1.97
13 | E3N | 2.08
14 | E3L | 1.43
15 | E3W | 1.66
16 | E3A | 1.85
17 | E3R | 2.09
18 | E3I | 1.63
19 | E3P | 2.27
20 | P11H | 2.32
21 | P11N | 2.2
22 | P11W | 2.82
23 | P11L | 2.03
24 | P11G | 3.1
25 | P11I | 3.28
26 | P11R | 2.21

Row | Variant | protein stability index
27 | P11Q | 1.91
28 | P11S | 2.56
29 | P11Y | 2.31
30 | P11D | 1.64
31 | P11A | 2.14
32 | P11E | 1.33
33 | P11V | 2.33
34 | P11T | 3.65
35 | P11M | 2.62
36 | P11K | 2.68
37 | P11F | 3.39
38 | A12T | 2.22
39 | A12E | 3.42
40 | A12G | 2.39
41 | A12F | 2.18
42 | A12M | 1.72
43 | A12I | 2.07
44 | A12S | 2.1
45 | A12Q | 2.6
46 | A12Y | 1.95
47 | A12W | 2.14
48 | A12C | 1.87
49 | A12P | 2.47
50 | A12V | 2.1
51 | A12L | 1.66
52 | A12N | 2.33

Row | Variant | protein stability index
53 | A12H | 1.93
54 | A12D | 2.81
55 | A12K | 2.13
56 | A12R | 1.63
57 | L4G | 3.51
58 | L4K | 2.62
59 | L4M | 2.11
60 | L4N | 3.09
61 | L4D | 3.96
62 | L4P | 3.04
63 | L4F | 2.5
64 | L4A | 2.33
65 | L4R | 1.99
66 | L4I | 2.5
67 | L4Q | 3.62
68 | L4W | 3.19
69 | L4T | 3.05
70 | L4V | 2.9
71 | L4Y | 2.06
72 | L4S | 2.86
73 | L4E | 4.42
74 | L4C | 2.43
75 | L4H | 3.25
76 | A2W | 2.5
77 | A2V | 2.15
78 | A2Y | 2.43

Row | Variant | protein stability index
79 | A2C | 1.92
80 | A2E | 4.46
81 | A2L | 2.36
82 | A2P | 3.42
83 | A2Q | 2.79
84 | A2K | 3.47
85 | A2S | 3.15
86 | A2G | 3.29
87 | A2R | 3.6
88 | A2I | 1.64
89 | A2D | 4.09
90 | A2M | 2.46
91 | A2H | 2.57
92 | A2N | 3.75
93 | A2F | 2.32
94 | A2T | 2.25
95 | V9F | 1.67
96 | V9T | 3.12
97 | V9L | 1.98
98 | V9W | 2.5
99 | V9C | 2.42
100 | V9M | 1.98
101 | V9D | 4.25
102 | V9R | 2.17
103 | V9N | 3.02
104 | V9A | 2.36

Row | Variant | protein stability index
105 | V9H | 2.69
106 | V9I | 2.62
107 | V9Y | 2.02
108 | V9Q | 2.71
109 | V9S | 3.34
110 | V9P | 2.41
111 | V9E | 3.64
112 | V9G | 2.27
113 | V9K | 2.88
114 | F10P | 3.58
115 | F10E | 3.68
116 | F10L | 3.27
117 | F10S | 3.61
118 | F10V | 3.52
119 | F10T | 3.47
120 | F10H | 3.43
121 | F10Y | 2.4
122 | F10A | 3.34
123 | F10W | 2.96
124 | F10I | 2.87
125 | F10R | 3.18
126 | F10Q | 3.46
127 | F10G | 3.27
128 | F10M | 3.06
129 | F10C | 3.07
130 | F10D | 4.2

Row | Variant | protein stability index
131 | F10N | 3.43
132 | F10K | 3.26
133 | A15K | 2.29
134 | A15I | 1.96
135 | A15F | 1.98
136 | A15D | 2.27
137 | A15G | 2.38
138 | A15E | 2.6
139 | A15Q | 2.17
140 | A15L | 2.31
141 | A15N | 2.33
142 | A15P | 2.47
143 | A15C | 2
144 | A15H | 2.58
145 | A15M | 2.18
146 | T13E | 3.45
147 | T13R | 2.22
148 | T13I | 1.81
149 | T13Q | 2.57
150 | T13W | 1.89
151 | T13C | 1.97
152 | T13P | 2.17
153 | T13A | 2.49
154 | T13G | 2.32
155 | T13M | 2.11
156 | T13N | 2.5

Row | Variant | protein stability index
157 | T13H | 2.2
158 | T13F | 1.33
159 | T13L | 1.92
160 | T13S | 2.37
161 | T13V | 2.2
162 | T13D | 2.8
163 | T13K | 2
164 | T13Y | 1.62
165 | G5F | 2.5
166 | G5E | 3.81
167 | G5P | 2.46
168 | G5Q | 2.53
169 | G5M | 1.98
170 | G5H | 2.52
171 | G5K | 2.02
172 | G5T | 2.28
173 | G5D | 3.32
174 | G5C | 2.24
175 | G5W | 3.46
176 | G5L | 1.57
177 | G5N | 2.47
178 | G5V | 2.21
179 | G5A | 2.14
180 | G5I | 1.72
181 | G5Y | 2.22
182 | G5S | 2.14

Row | Variant | protein stability index
183 | G5R | 2.02
184 | Q6A | 2.18
185 | Q6C | 1.61
186 | Q6M | 1.54
187 | Q6R | 1.69
188 | Q6S | 2.42
189 | Q6E | 3.19
190 | Q6I | 1.57
191 | Q6V | 1.94
192 | Q6G | 2.04
193 | Q6T | 2.42
194 | Q6N | 2.28
195 | Q6F | 2.14
196 | Q6K | 2.05
197 | Q6D | 3.3
198 | Q6H | 2.02
199 | Q6W | 2.89
200 | Q6L | 2.03
201 | Q6P | 2.26
202 | Q6Y | 1.95
203 | C7N | 1.89
204 | C7Q | 2.36
205 | C7Y | 2.12
206 | C7R | 2.57
207 | C7G | 2.63
208 | C7K | 2.23

Row | Variant | protein stability index
209 | C7A | 3.2
210 | C7M | 2.23
211 | C7F | 1.78
212 | C7L | 1.69
213 | C7D | 3.04
214 | C7P | 3.45
215 | C7S | 1.87
216 | C7W | 2.5
217 | C7H | 1.91
218 | C7I | 1.97
219 | C7V | 2.32
220 | C7T | 2.87
221 | C7E | 3.9
222 | Y1D | 4.58
223 | Y1P | 4.5
224 | Y1K | 4.16
225 | Y1V | 3.56
226 | Y1L | 3.54
227 | Y1M | 3.63
228 | Y1C | 3.13
229 | Y1Q | 4.7
230 | Y1E | 4.52
231 | Y1T | 3.99
232 | Y1A | 4.32
233 | Y1H | 4
234 | Y1N | 4.46

Row | Variant | protein stability index
235 | Y1F | 2.24
236 | Y1G | 4.39
237 | Y1W | 2.84
238 | Y1I | 3.44
239 | Y1S | 4.09
240 | Y1R | 3.78
241 | D14E | 2.05
242 | D14H | 1.97
243 | D14F | 2.04
244 | D14Y | 2.56
245 | D14K | 1.96
246 | D14N | 2.13
247 | D14I | 2.02
248 | D14Q | 1.91
249 | D14V | 1.78
250 | D14M | 1.75
251 | D14T | 1.94
252 | D14R | 1.7
253 | D14G | 2
254 | D14A | 1.46
255 | D14S | 2.09
256 | D14P | 1.88
257 | D14L | 1.62
258 | D14C | 1.86
259 | S8E | 3.17
260 | S8D | 3.06

Row | Variant | protein stability index
261 | S8Y | 1.59
262 | S8P | 2.04
263 | S8I | 1.75
264 | S8K | 2.04
265 | S8L | 1.62
266 | S8W | 3.17
267 | S8R | 1.9
268 | S8H | 1.83
269 | S8G | 1.93
270 | S8V | 2
271 | S8M | 1.66
272 | S8Q | 2.08
273 | S8A | 1.87
274 | S8N | 2.57
275 | S8T | 2.28
276 | S8C | 1.64
277 | S8F | 2.53

Variants of: B2
Assay: as above
Settings: c terminus: a fixed tail appended

Row | Variant | protein stability index
278 | W24Y | 2.9
279 | W24C | 3.8
280 | W24S | 4.08
281 | W24R | 3.54
282 | W24D | 4.02
283 | W24E | 4.33
284 | W24M | 3.83
285 | W24G | 4.07
286 | W24H | 3.98
287 | W24F | 3.6
288 | W24I | 2.94
289 | W24P | 4.15
290 | W24N | 3.64
291 | W24Q | 3.8
292 | W24A | 3.96
293 | W24L | 3.3
294 | W24V | 2.96
295 | W24K | 4.11
296 | W24T | 4.05

Row | Variant | protein stability index
297 | H22Q | 3.05
298 | H22N | 3.23
299 | H22S | 3.1
300 | H22D | 3.31
301 | H22V | 2.43
302 | H22P | 3.03
303 | H22M | 2.37
304 | H22C | 2.45
305 | H22K | 2.99
306 | H22W | 1.95
307 | H22L | 2.12
308 | H22E | 3.29
309 | H22I | 2.42
310 | H22A | 2.56
311 | H22F | 1.92
312 | H22T | 2.84
313 | H22Y | 2.51
314 | H22G | 2.68
315 | H22R | 2.85

Row | Variant | protein stability index
316 | L23A | 3.24
317 | L23E | 4.03
318 | L23P | 3.13
319 | L23V | 2.93
320 | L23H | 3.42
321 | L23Y | 2.85
322 | L23I | 2.66
323 | L23F | 2.93
324 | L23C | 3.11
325 | L23S | 3.41
326 | L23T | 3.29
327 | L23N | 3.29
328 | L23K | 3.29
329 | L23W | 2.71
330 | L23G | 3.42
331 | L23M | 3.27
332 | L23D | 4.24
333 | L23R | 3.25
334 | L23Q | 3.59
